The record followed here is PMC9564178 (Cells, 2022).

Assay [1] addresses T1, human recombinant TPPP1 (hexaHis fusion) (human, UniProt O94811 1-219).
T1 construct: human TPPP1 (Tubulin Polymerization Promoting Protein, TPPP/p25), UniProtKB O94811, 219 amino acids; probably the whole 219-residue protein; also called TPPP/p25; source: E. coli BL21 (DE3), isolated on a HIS-Select Cartridge
Put plainly: ELISA; TPPP3 immobilised; recombinant TPPP1 added at different concentrations with extract of non-transfected HeLa cells (0.32 mg/mL); detected by monoclonal TPPP1 antibody; apparent Kd. The settings on record: both partners purified. A general note: An ELISA detects its analyte on a solid surface through an enzyme-linked reagent.

Assay [2] concerns the target T1, human recombinant TPPP1 (hexaHis fusion). Put plainly: ELISA; TPPP3 immobilised (5 μg/mL, PBS); recombinant TPPP1 added at different concentrations, without HeLa extract; detected by monoclonal TPPP1 antibody; apparent Kd, single-site hyperbola. The settings on record: both partners purified.

T1 sequence (O94811 whole entry, the tested form may be a part): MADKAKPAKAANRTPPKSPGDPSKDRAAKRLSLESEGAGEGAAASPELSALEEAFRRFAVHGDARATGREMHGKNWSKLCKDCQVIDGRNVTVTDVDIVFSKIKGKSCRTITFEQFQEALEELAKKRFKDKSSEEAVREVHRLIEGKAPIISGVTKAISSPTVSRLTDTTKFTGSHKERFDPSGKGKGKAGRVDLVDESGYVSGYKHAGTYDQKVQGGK

B1: human recombinant TPPP3 (hexaHis fusion) (natural protein)
chain: AGLEESFRKFAIHGDPKASGQEMNGKNWAKLCKDCKVADGKSVTGTDVDIVFSKVKGKSARVINYEEFKKALEELATKRFKGKSKEEAFDAICQLVAGKEPANVGVTKAKTGGAVDRLTDTSRYTGSHKERFDESGKGKGIAGRQDILDDSGYVSAYKNAGTYDAKVKK
notes: human TPPP3 (Tubulin Polymerization Promoting Protein 3), UniProtKB Q9BW30, 176 amino acids; probably the whole 176-residue protein; also called TPPP/p20; source: E. coli BL21 (DE3), isolated on a HIS-Select Cartridge
Turning to B1, the Kd in assay [1] came to 47.7 nM; in assay [2], 6.53 nM.
